Where two headings read alike, the source gives them in different places.
Assays:
[1] = molecular target: T1, human PD-L1 on CHO-K1 cells (CHO-K1/hPD-L1, Nanjing Genscript, M00543) (human, UniProt Q9NZQ7 19-290); test: flow cytometry competition: biotin-hPD-1 binding to CHO-K1/hPD-L1 cells
T1 construct: whole, on cells; also called CHO-K1 cells overexpressing human PD-L1; human PD-L1 on the cell surface
Procedure: (§1) In brief, the CHO-K1/hPD-L1 cells were digested, and resuspended in F-12K complete medium. The cell density was adjusted to 1× 10⁶ cells/mL. […] Cells were placed at 4° C., and were incubated away from light for 1 hr. Then, the cells were centrifugated at 4° C. for 5 mins, and the supernatant was discarded. […] The cells were washed with 100 μL/well of pre-cooled PBS twice, centrifuged at 500 g, 4° C. for 5 mins, and the supernatant was discarded. […] 200 μL/well of pre-cooled PBS was used to wash cells twice, cells were centrifuged at 500 g, 4° C. for 5 mins, the supernatant was discarded. Finally, 200 μL/well of pre-cooled PBS was used to resuspend cells. The BD FACS MAYTOII was used to read the signal value of fluorescent luminescence. The software GraphPad Prism 8 was applied to perform data processing and plotting analysis, and the parameters such as binding curves and IC50 values were obtained by four-parameter non-linear fitting.

[2] = molecular target: T1, human PD-L1 on CHO-K1 cells …; test: as above; remark: listed apart in the source
Procedure: as §1

[3] = molecular target: T1, human PD-L1 on CHO-K1 cells …; test: flow cytometry on CHO-K1/hPD-L1 cells
Source text: (§2) To study the binding activity of the PD-L1 antigen binding proteins to human/cynomolgus PD-L1 in vitro, this example uses the CHOK1 cell line overexpressing human PD-L1 (CHO-K1/hPD-L1, Nanjing Genscript, M00543) or the CHOK1 cell line overexpressing cynomolgus PD-L1 (CHO-K1/cynoPD-L1, Nanjing Genscript, M00573) to perform binding experiments at cellular level. In brief, the PD-L1 cells were digested, and resuspended in F-12K complete medium, and the cell density was adjusted to 1× 10⁶ cells/mL. […] The cells were placed at 4° C., incubated away from light for 1 hr. Then, 100 μL/well of pre-cooled PBS was added to wash cells twice. The cells were centrifuged at 500 g, 4° C. for 5 mins, and the supernatant was discarded. […] 200 μL/well of pre-cooled PBS was added to wash cells twice, and the cells were centrifuged at 500 g, 4° C. for 5 mins, and the supernatant was discarded. Finally, the cells were resuspended with 200 μL/well of pre-cooled PBS. The signal values of fluorescent luminescence were read using BD FACS MAYTOII. The flow cytometer BD FAC MAYTOII was used to read the signal values of fluorescent luminescence, and the software FlowJo v10 (FlowJo, LLC) was used to process and analyze data. […]

[4] = molecular target: human PD-L1 on Hep3B cells co-expressing human PD-L1 and OS8 (human, UniProt Q9NZQ7 19-290); test: cell-based or functional assay
Chain of human PD-L1 on Hep3B cells co-expressing human PD-L1 and OS8 (Q9NZQ7 19-290): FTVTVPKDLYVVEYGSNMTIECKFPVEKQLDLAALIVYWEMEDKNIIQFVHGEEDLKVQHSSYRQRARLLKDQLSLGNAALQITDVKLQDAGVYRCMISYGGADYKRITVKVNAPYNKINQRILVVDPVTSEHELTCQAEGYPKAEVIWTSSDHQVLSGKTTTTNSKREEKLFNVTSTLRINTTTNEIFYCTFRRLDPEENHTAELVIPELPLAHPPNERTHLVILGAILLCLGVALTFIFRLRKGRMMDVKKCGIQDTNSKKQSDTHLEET

[5] = molecular target: T1, human PD-L1 on CHO-K1 cells …; test: flow cytometry on CHO-K1/hPD-L1 cells; remark: listed apart in the source
Source text: as §2

T1 sequence (Q9NZQ7 19-290, one chain of several): as the sequence (Q9NZQ7 19-290) above

B1: PR000416 (antibody, human IgG1, kappa)
heavy: not shown
light: DIQMTQSPSTLSASVGDRVTVTCRASQSIYIWLAWYQQKPGKAPNLLIYKASSLETGVPSRFSGSGSGTEFTLTISSLQPDDFATYYCQQYYGSSRTFGQGTKVEIKRTVAAPSVFIFPPSDEQLKSGTASVVCLLNNFYPREAKVQWKVDNALQSGNSQESVTEQDSKDSTYSLSSTLTLSKADYEKHKVYACEVTHQGLSSPVTKSFNRGEC
notes: PR000265 with the heavy chain constant region replaced by the human IgG1 constant region without mutation; also called Fc-type switching of PR000265
IC50 [1]: 0.19 nM | IC50 [2]: 0.127 nM | EC50 [3]: 0.231 nM | MFI maximum value [3]: 37900 MFI | EC50 (nM), PD-1 reporter gene cell line [4]: 0.077 nM | Maximum fluorescence value (RLU) [4]: 3660 RLU | EC50 [5]: 0.259 nM | MFI maximum value [5]: 40400 MFI

— patent publication US20260258137A1 (HARBOUR BIOMED SHANGHAI, published 2026)
